According to publication PMC3822002 (Chembiochem : a European journal of chemical biology, 2013):

What was measured:
tumor growth = details: ref [31]–[32]; cited from earlier work
CRL substrates = details: ref [31]–[32]; cited from earlier work
NAE = target: T1, NAE (Homo sapiens, UniProt Q13564+Q8TBC4); details: covalent adduct with the C-terminus of Nedd8; ref [16], [30]; cited from earlier work
T1 sequence (Q8TBC4 1-463): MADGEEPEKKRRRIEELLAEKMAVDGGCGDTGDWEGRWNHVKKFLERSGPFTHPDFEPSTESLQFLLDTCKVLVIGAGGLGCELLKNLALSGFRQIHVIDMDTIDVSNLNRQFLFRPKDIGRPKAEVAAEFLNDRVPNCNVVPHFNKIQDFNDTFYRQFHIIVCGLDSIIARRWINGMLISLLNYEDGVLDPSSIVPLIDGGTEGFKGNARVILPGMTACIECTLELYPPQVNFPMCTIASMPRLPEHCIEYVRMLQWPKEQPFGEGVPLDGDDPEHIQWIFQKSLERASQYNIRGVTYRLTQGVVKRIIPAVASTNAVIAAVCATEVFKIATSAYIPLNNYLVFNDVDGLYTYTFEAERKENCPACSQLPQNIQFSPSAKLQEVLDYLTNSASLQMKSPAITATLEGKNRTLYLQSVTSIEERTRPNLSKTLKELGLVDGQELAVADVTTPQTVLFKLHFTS
T1 sequence (Q13564 1-534): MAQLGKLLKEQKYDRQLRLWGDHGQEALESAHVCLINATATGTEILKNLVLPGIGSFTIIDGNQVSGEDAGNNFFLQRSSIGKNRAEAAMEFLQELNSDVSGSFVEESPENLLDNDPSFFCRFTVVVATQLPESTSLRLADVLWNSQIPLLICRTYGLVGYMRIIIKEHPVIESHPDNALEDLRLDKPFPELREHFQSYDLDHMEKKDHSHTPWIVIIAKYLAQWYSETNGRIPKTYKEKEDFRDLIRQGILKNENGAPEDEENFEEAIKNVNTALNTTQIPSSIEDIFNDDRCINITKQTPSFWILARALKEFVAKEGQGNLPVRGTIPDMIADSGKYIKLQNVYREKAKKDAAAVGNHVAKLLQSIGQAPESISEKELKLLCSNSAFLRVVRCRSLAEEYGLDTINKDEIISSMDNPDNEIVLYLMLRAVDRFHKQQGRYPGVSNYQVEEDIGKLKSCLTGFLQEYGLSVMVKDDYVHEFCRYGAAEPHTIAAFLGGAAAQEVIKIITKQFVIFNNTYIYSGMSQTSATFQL

[1] = target: Nedd8 activating enzyme (NAE), heterodimer of APPBP1 and Uba3 (UniProt Q13564)

| Compound | K1/2 of the ATP-PPi exchange reaction catalysed by NAE, saturating ATP [1] | effect on tumor growth (tumor growth) | effect on ubiquitination and degradation of CRL substrates (CRL substrates) | NAE inhibition (NAE) |
| --- | --- | --- | --- | --- |
| NS(=O)(=O)OC[C@@H]1C[C@@H](n2ccc3c(N[C@H]4CCc5ccccc54)ncnc32)C[C@@H]1O [MLN4924] |  | inhibit tumor growth | block ubiquitination and degradation of CRL substrates | potent inhibitor of NAE |
| wt Nedd8 (71LALRGG76), N-terminal GST fusion (from UniProt Q15843 1-76) (natural protein) | 1.3 µM |  |  |  |
| Nedd8 variant ND4 (71RLWFGG76), N-terminal GST fusion (from UniProt Q15843 1-76) | 4.5 µM |  |  |  |

Continued, in another order:

| K1/2 of the ATP-PPi exchange reaction catalysed by NAE, saturating ATP [1] | Compound | effect on tumor growth (tumor growth) | effect on ubiquitination and degradation of CRL substrates (CRL substrates) | NAE inhibition (NAE) |
| --- | --- | --- | --- | --- |
| 0.45 µM | Nedd8 variant ND20 (71ILTFGG76), N-terminal GST fusion (from UniProt Q15843 1-76) |  |  |  |
| 150 µM | Nedd8 variant ND1 (71LQWFGG76), N-terminal GST fusion (from UniProt Q15843 1-76) |  |  |  |
